Source: the DeepSol protein solubility set

experiment: soluble on expression in E. coli; label from the status in PepcDB or PDB records

Row | Sequence | soluble on expression in E. coli
1 | MTDARTTVVVITHNRCAEVLRTLDRLAELPERPAVIVTDNGSTDGTAAAVARHHPGVRLLRSGRNLGAVGRNLAVRQVTTPYVAFCDDDSWWAPGSLSGAADLLDRYPAVGSVTARILVEPEGTEDPIVEELRDSPVPRPDWLPGPALGSFLAAATVLRTDAFRAAGGFHPRLWLGGEEELLAADLAANGWWLTYAGQLTIHHHPSGVRDSTVRRSHGIRNTLWFTWLRRPVGPALRRTLHLARTVPRDTASLRAFAEATAALPWVLRERRVLPPEVEARLRALEPAQRDSTARSYTGLEHHHHHH | not soluble
2 | MWVDGMAKVVEVGRICVKTRGREAGRKCVIVDIIDENFVLVTGPKSLTGVRRRRVNIDHIEILDKKVDIQKGASDEEVLKALEEAGLADFMREPVRIARITPFTLLEHHHHHH | not soluble
3 | MGSDKIHHHHHHMKLLMIELHQEDCSNIAVSEKIKDAELNLVNVREDGDYTHIDAIFLGDMFKENVISTLRKEKAFNINLKMKSRSEIWVSYDILTTAAWRNFSSLGCTVVPPLRVANGVEKWFVYTPDEISQRDIKRQLEMDNATHISRIRELTLKSFLKVIFNMDFLSDFIDTMEALTDLQVKTIKQAYVNGYYDYPRRCTLGDLAKINGISKNAMAKRLKSVEKKIFECLFGYI | not soluble
4 | MSLENKFARTVLGDIPVEKLGITDCHDHFIKNGGPEVEEHIDFLMLNVDASIKEFKEFIDRGGSTIVTMDPPNVGRDVLKTLEIANAVKNLGGNVIMSTGFHKAKFYDKYSSWLAVVPTEEIVKMCVAEIEEGMDEYNYNGPVVKRSKAKAGIIKAGTGYGAIDRLELKALEVAARTSILTGCPILVHTQLGTMALEVAKHLIGFGANPDKIQISHLNKNPDKYYYEKVIKETGVTLCFDGPDRVKYYPDSLLAENIKYLVDKGLQKHITLSLDAGRILYQRNYGLTKGKQTFGLAYLFDRFLPLLKQVGVSKEAIFDILVNNPKRVLAFDEKRNFDPLKVSKEVLELKKELNLNEGHHHHHH | soluble
5 | MSLDNINHILSKELGISLKQVTSVIEMLDEGNTVPFIARYRKERTGGLTDEVLRKFNERLTYLRNLESRKEDVLRIIEEQEKLTPELKLKIEKATTLTEIEDIYRPFKAKKRTRATMAVEKGLKPLAELILSGEFNGDIVEEANKYINEEKGVKNEEEALQGAMDIISEIISDNADYRKWIRNFVQKDGIIQVKGSSEEQTPYEMYYDYKEPVRTIPSHRILAINRGEKEKILSVKVTCNDDKIIDYLNKKVLKENKITDKYLEESIKDSFKRLIYPSIEREIRSELTSKGEEGAIDIFKANLKALLMQAPIKGKVVMGFDPGFRTGCKVAILDETGKFVENTTVYPTAPQNRIDETISTLKKLIKKHGVQVISLGNGTASRESEEVIAKMLKEIKDETGKELFYVIVSEAGASVYSASELANKEYPDLDVTVRGAISIGRRLQDPLAELVKIDPKAIGVGQYQHDVTQKKLDESLAGIVEDCVNNVGVDLNIATPSLLSYISGINASIAKNIVDYREENGKFKSRKELLKVKRLGQKAYEQCAGFLRVMESKEALDNTSVHPESYKVAKELIKTLGYTEEDEGHHHHHH | soluble
6 | VEQIMIQGTASDAGKSVIVAGLCRLFKNKGKRVVPFKSQNMSLNSFITATGDEMGRAQVFQAEAAGVFPDVRMNPVLLKPTNDRQSQVIFMGAILDNMDAVSYHDFKQTLIPKIQAVYQSLADENDIIVLEGAGSPAEINLNDRDIVNMGMAKMVDAPVVLVADIDKGGVFASIYGTIMLLKEEERARLKGVIINKFRGDVALLQPGIEMIEELTNVPVIGVIPYANLQL | not soluble
7 | MTRNAPPGQESTDLAWLVTPAKDLVENFSIDVLKALAGYLEVIRQESEDTDNQVDAATTYRLFDFQRACRIIQGSCAVYGRKVDHVYELTISVVDLVENKGQDDGNTGSRRGAGRRKNFNLGSTNYDLADIDSLKQEALANFEKTVKEEKKSIDAVRMVENAEVIESQYERKSCLVAKPTQFMFKLNYGQLNRTDEQILNAKSRPDVIGKVKDFEIKKSKVKHDQQILYSHDCYRGNLDQFTLPGARWMPDNKELAANFGVADLEVELDLEQEHEKISAYGPFKDPLSGREVVPPPRWFIEQEAVRQNQEIQSRATSRAITIAAKTLRDSQGFGSQPTRLSQPFVERHRQSNHLNDFLSFVEGRVNKNRPSTHLTTGLVDMFVDNFGSVMQNDEPNTSRRPDENYAPMDFDDDFGGGGDDDDDDYIRNLSRRDEKRAPAPWDELDKNHIIWYTGDENLPVVSKPVKKITKFQPKPAEMLARKQRREEKINKSRRDEFMETHDYLQDYYYWRSAARINPIKDWKIESLRTAILAEKKRRIKEKTAKIREARIQNMQRKRTARVIPVEQFEPVTEDIPTSNRRTLGAEYDDVVDEDLAAEVELSMFGGGFDDDEEDVRPRGERPPMAPNNLEFDALQTDFDIPPAEYVPLRFEDIDDAELNSVINLPGNLLIDKALPLLKKFAENRTDREQMAYEMAKAYEDVDVAVSTLQEHVDKWHSRMEPILEEGETRKEYDVHAVGRAVIGQYDIEGGTKRLLDLVMDRPWYEISRYFLSCLFMCNVGNVMVSEDMELPLEERINSMKITLLKRDMHCEMFKEAGALDA | not soluble
8 | MPHVLVLNASYEPLGVVPLRRALVLVLENKAVCLEESGAFMHSATVTVPAPSVVRLKRFVRVPYRGPVPLTRRALFARDGGRCMYCGGVATSVDHVIPRSRGGQHAWDNVVASCRRCNHVKADRHLFEIGWRLRHKPAPPTGLAWRIIGTGHRDPRWLPYLQPYGADDAMARIDGISAAAALEHHHHHH | not soluble
9 | MGSDKIHHHHHHADILSCTVDGDILKAEPEIDNESVTLTVKSDADITNLAPVFTLTPGATITPASGSAFDFTTPRTYTVTSEDGHWTKTYTVRCIVSGVSTEYHFEHITMEPKNGRYQIFYDFTSNGDSVTWASGNAGFALTNNKLEPLDFPTMQDDNGYVGKCAKLVTRSTGSFGSGFGMPIAAGNLFIGTFDLLNAIPDARKGTRLGRPFDHVPTYLSGYYKYKAGESYKVNGEEVKGKKDQCDIYAIFYETDENVKYLDGFNGLTSPNLISVARISDQKETDEWTRFYIPFVAKPGKVIDKDKLAKGGYQLSIVFSSSLKGDVFEGAEGSTLWIDEVEIIQSGEN | not soluble
10 | MAHHHHHHMCATSKENTPEFYKKYVKDIIDRIEDNARREFEAIWRDHESHPGMSKTLISDTLSEKNVKVRANILASDVFKNKKLVRYILFHYTPKTLLEVVPVDELMNRVPIAYQHAICAMWLASEYVYSTGIDSNEFDFFSFMSAHIERASAMAKEQSR | soluble
11 | MGSDKIHHHHHHMTTLPYFQPAASPASAGEGSASLSPVIALKDLVARLDREQRKAQELLASLGFALRSFTNLGQFLELIPLIASRVTDTEGSLLLTFRPDGRFWQAQLHCTDPRLAETLNRIPASLPVGTAPSGSPTEAIAEIDRQVQRCLGRNAQLFATAVLVRNQARGRLYVFSLDGQYSWNESRQKLVRLVADQTAVAIENDALTTELRQKERLDRELEIGAEIQLQLLPSQCPAIEGLEIAAACRTASRVGGDYYDFIPTRTHSDEQGRLQPDAGSPWAIAIGDIMGKGVPAGLIMTMLRGMLRAEVLNRHRPSRVLAHLNQVIYADLEHSNRFATLFYSEYDPSSRLLTFSNAAHNPPLLWQQATGTLKRLDTFGMMIGLEADNAYAEQHVQLQPGDVVLYYTDGLTDAADPRGNRFDEENVAIAFREACRRRLSAEALLADLFNRVQRFIGPDRHNEDDMTLVVLRAV | not soluble
12 | MSLETKVAARDLSSLLSHCEAPVAALTVTAFKCKASACSVAPAPGSNTGLGALMSMAQAAQGLQTFPNIGDGLSNALTTALKTTGCFKVMAREDFEDLRREAEAAGITLKSASADYLVTGAITSLAVGAKTQSFGGGFVPLVGAVSRSTKSANISIDVRLVDVKASEVKASQTFDVSNERSSWGAGGAGWGGSGALFGAASSTQSPELDSVANESVIQAANYIVTQVAGSAAIPPVAAITKEGHHHHHH | not soluble
13 | MGSDKIHHHHHHMETREAIFGRRSIRKYLDKPIEPEVLQDILEGAVMAPSAVNNQPWYFLAIKSQEQMEKLRGIFQEVSVKTKAVLEKRFPNNPEVVSETLGFLTSLGNARVCVLVFLLKPSKDYDIIAVESTSAAIQNLCLVAYDKGIGSCWMTAPLSTGFGDVLEKTFAPGKGKFIAAVTLGYPAVSPQAPKRKAGRYEII | not soluble
14 | MNKKVGESTLYEWLVSYQKLEQEIYYLDWELETYKKELERWCDPEDLGRYTLTKDSKASKLEDIIEDLEKRLAWKMNSIYDLRKLVYSFKGLDQKILVAKYIEGLSLKQIAGEFGHSYGYIRNKHNQILKKIEKSDNDVTIPIDKS | not soluble
15 | MSLMRKNETREFLIEDIEFPAVGVAFYNDKKVYIKGAVPGQKVLARVSKVRREKIEAKLKEIVTNIPGAAQPKCPDFGVCGGCVHQFLPYEKQLEFKEREVLKLFKDAKIEGFEYLGILGSPEKEEYRNKMEYTFGDFVKGGELTLGMHAKDSGFSIVNTDKCNIVDEDFRIILKTVVEYFRKKDLPIYKVMQHVGYLRNLVVRKAKNTGEILIALVTTSQVDFDLTELTEILKSINYLGELKGILHVINDGLADMVRGDKIVTLFGQDYITERILDLKFKMSLFSFFQTNSKGAEKLYSEVLEFLGDVSNKTVFDLYCGTGTIGQLASKKAEKVIGIELIEEAVEAAKENTKLNNISNCSFIAGDVAKVITEIKEKPDTIILDPPRPGVSPNAMKYVIKFNAPEIVYVSCNPKTLVNDLGVLRAYGYEVEKVKIVDMFPGTGHVETVVLLQRKIIEGHHHHHH | soluble
16 | MGSDKIHHHHHHMSAPLDIDQLQTFVAIADTGSFTKAADRVFKTQSAVSMQMRRLEERIGKPLFMKDGRGNRLTVEGDRLLNFARRMIRLNNEAIASFDDNRLEGTLRIGTPDDYADRYMPEIIVRFAKTHPNVELYIICEPSVDLAEKMAKGDLDIALVTHNPRARASDVVRTEPLCWVSSINHPLPENAPIPLAVGRRDCQWRQAACAALDATGKEYQILFTSWSSTVVAAAVLAGMAVSVLPESALRPGMKVLTLADGFPSLAPVQIGIMKRPGLSPSLSNAITNHITACLDNITPITVNDDLEGDLKGYPRYPRLRQSHMLPGW | not soluble
17 | MGSDKIHHHHHHMMTYYFIADLHLNESQPQITHQFLQFMQQKAPLAQAVYILGDFFDFWIGDDEQSVLISQVKLALKKLTASGVKCYFICGNRDFLLGQTFAQQTGIQLLADYHLLDLFGERTLLCHGDTLCIDDIKYQQFRRRVHQKRLQKLFLWLPLTLRIKIAQKIRRKSKQDKKNKSADIMDVNQAFTAQKVHQYGATHLIHGHTHRQAVHFEQNFTRIVLGDWRPDRSSILKVDEKGFEFL | not soluble
18 | MTISELLQYCMAKPGAEQSVHNDWKATQIKVEDVLFAMVKEVENRPAVSLKTSPELAELLRQQHSDVRPSRHLNKAHWSTVYLDGSLPDSQIYYLVDASYQQAVNLLPEEKRKLLVQL | not soluble
19 | MSKLFPGEVFANTADFDTGIRQLLPRYDEMLEVICRCLPLTSRRILDLGCGTGELSLKILQRCPDAQVIALDYSPRMLKFAQNKIVASGYKERWTGLQADFGDWAINPETLNIGNEFDACVSSLAIHHLYDEMKLQLFQRIAASLTPNGCFWNADPILPESPTLAEIYQAAREEWVSEQGSNFTEVRAKVGDSSPQGYSNPDQLATLDTHLQMLTKSGFTTVAVPWKYYGLAVFGGWVKLEHHHHHH | soluble
20 | GPQMLSANERLKNNFNILYNQIRQYPAYYFKVASNVPTYSDICQSFSVMYQGFQIVNHSGDVFIHACRENPQSKGDFVGDKFHISIAREQVPLAFQILSGLLFSEDSPIDKWKITDMNRVSQQSRVGIGAQFTLYVKSDQECSQYSALLLHKIRQFIMCLESNLLRSKIAPGEYPASDVRPEDWKYVSYRNELRSDRDGSERQEQMLREEPFYRLMIE | soluble
21 | PSPSTEQSAKKVRKKAENAHNTPLLVLYGSNMGTAEGTARDLADIAMSKGFAPQVATLDSHAGNLPREGAVLIVTASYNGHPPDNAKQFVDWLDQASADEVKGVRYSVFGCGDKNWATTYQKVPAFIDETLAAKGAENIADRGEADASDDFEGTYEEWREHMWSDVAAYFNLDIENSEDNKSTLSLQFVDS | soluble
